Data on 6 molecules can be found in patent US20240279284A1 (KOREA ADVANCED INSTITUTE OF SCIENCE AND TECHNOLOGY, published 2024).

Assay [1] has as its target BCL-2 (1-34:chimeric loop:92-203), biotinylated, with C-terminal biotinylation sequence (UniProt P10415 1-34; P10415 92-203). Put plainly: SPR, biotinylated BCL-2 on CAP chip. As to the method: (§1) SPR data were collected on an 8 K device (GE Healthcare). A Series S Biotin CAPture kit (GE Healthcare) was used to immobilize biotinylated anti-apoptotic BCL-2 proteins, and all experiments were conducted in HBS-EP+buffer solution (10 mM HEPES, 150 mM NaCl, 3 mM EDTA, 0.005% Surfactant P20; GE Healthcare). Biotinylated anti-apoptotic BCL-2 proteins were immobilized on the CAP chip until the response units reached 100. Serially diluted analytes were injected at a flow rate of 30 μl/min. Analytes were used at 20 nM for single concentration experiments. Dissociation constants (KD) and kinetic parameters (Kₐ and Kd) were estimated using Biacore 8 K evaluation software (GE Healthcare).
(Surface plasmon resonance follows binding to a sensor surface in real time, without labels.)

The target of assay [2] is T1, MCL-1 (172-321), biotinylated, with C-terminal biotinylation sequence (Homo sapiens (Human), UniProt Q07820 172-321). The assay can be described thus: SPR, ratio of KD values. As for the experimental part:
as §1

The target in assay [3] is T2, BFL-1 (1-151;C4S/C19S), biotinylated, with C-terminal biotinylation sequence (UniProt Q16548 1-151).
T2 construct: range 1-151; also called BFL-1 (A1)
T2 sequence: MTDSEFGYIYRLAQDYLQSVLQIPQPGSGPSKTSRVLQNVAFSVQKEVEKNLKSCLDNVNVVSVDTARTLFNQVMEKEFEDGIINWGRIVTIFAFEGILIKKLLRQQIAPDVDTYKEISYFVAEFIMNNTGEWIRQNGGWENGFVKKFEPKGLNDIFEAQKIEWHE
The assay can be described thus: SPR, biotinylated BFL-1 on CAP chip; target BFL-1. As for the experimental part: as §1

Assay [4] has as its target T1, MCL-1 (172-321), biotinylated, with …. Put plainly: SPR, MCL-1 immobilized, analyte series from 5 to 320 nM. As for the experimental part:
as §1

Assay [5] shares this target. The assay can be described thus: SPR, biotinylated MCL-1 on CAP chip. As to the method:
as §1

In assay [6] the target is T3, BCL-xL (1-44:85-209), biotinylated, with C-terminal biotinylation sequence (Homo sapiens (Human), UniProt Q07817 1-209, biotin on the C-terminal biotinylation sequence … (co-expressed BirA)).
T3 construct: Form immobilised on the CAP chip for SPR; Any purification tag from pJK hTx is not described
Put plainly: SPR, BCL-xL immobilized, analyte series from 1.25 to 80 nM. As for the experimental part: as §1

Assay [7] concerns the target T4, BCL-B (1-177;C30S/C138S), biotinylated, with C-terminal biotinylation sequence (UniProt Q9HD36 1-177).
T4 construct: range 1-177
T4 sequence: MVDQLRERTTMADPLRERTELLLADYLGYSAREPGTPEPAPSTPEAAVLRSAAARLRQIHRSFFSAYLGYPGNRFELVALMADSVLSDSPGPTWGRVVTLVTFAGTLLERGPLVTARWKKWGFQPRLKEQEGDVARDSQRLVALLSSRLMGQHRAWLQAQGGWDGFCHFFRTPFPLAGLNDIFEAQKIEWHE
The assay can be described thus: SPR, biotinylated BCL-B on CAP chip; target BCL-B. As for the experimental part: as §1

Assay [8] addresses T5, BCL-W (1-164), biotinylated, with C-terminal biotinylation sequence (UniProt Q92843 1-164).
T5 sequence: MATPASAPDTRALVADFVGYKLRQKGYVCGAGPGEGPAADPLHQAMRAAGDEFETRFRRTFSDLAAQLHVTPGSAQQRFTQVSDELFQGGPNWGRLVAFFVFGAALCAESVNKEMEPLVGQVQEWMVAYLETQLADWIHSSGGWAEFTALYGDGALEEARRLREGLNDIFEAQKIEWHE
The assay can be described thus: SPR, biotinylated BCL-W on CAP chip; target BCL-W. As for the experimental part: as §1

For assay [9], the target named is T3, BCL-xL (1-44:85-209), biotinylated, …. Put plainly: SPR, ratio of KD values. As for the experimental part: as §1
For assay [10], the target named is T6, MCL-1 (172-321) (Homo sapiens (Human), UniProt Q07820 172-321). The assay can be described thus: crystal structure. As to the method:
Crystals were obtained by the hanging-drop vapor diffusion method at 20° C. […] The crystals were immersed briefly in a cryoprotectant solution. […] X-ray diffraction datasets were collected on beamline 5C at Pohang Accelerator Laboratory, South Korea. […] Then, automatic model building into the electron densities and structure refinement were performed using the PHENIX software suit. […] Iterative rounds of manual model building and refinement were carried out using the programs COOT and PHENIX. All structures were illustrated using the PYMOL software.

For assay [11], the target named is T3, BCL-xL (1-44:85-209), biotinylated, …. Put plainly: SPR, biotinylated BCL-xL on CAP chip. As to the method: as §1
Assay [12] concerns the target T6, MCL-1 (172-321). Put plainly: size-exclusion chromatography (Superdex 75 Increase 10/300 GL), qualitative binding assay. (Size exclusion chromatography separates by hydrodynamic size, large species first.)
The target in assay [13] is T3, BCL-xL (1-44:85-209), biotinylated, …. Put plainly: SPR, different analyte concentrations, biotinylated BCL-xL on CAP chip. As to the method: as §1
The target of assay [14] is T1, MCL-1 (172-321), biotinylated, with …. Put plainly: comparison of KD values (SPR).
The target of assay [15] is T3, BCL-xL (1-44:85-209), biotinylated, …. The assay can be described thus: comparison of KD values (SPR).
In assay [16] the target is BCL-xL, endogenous, in K562, HCT-116, SW620, MEWO and A375 cancer cells (Homo sapiens (Human)) (UniProt Q07817). Put plainly: cell-based or functional assay.
Assay [17] has as its target MCL-1, endogenous, in K562, HCT-116, SW620, MEWO and A375 cancer cells (Homo sapiens (Human)) (UniProt Q07820). Put plainly: cell-based or functional assay.

A value given as a limit tells only on which side of the number the result lay.

Sequence of BCL-xL, endogenous, in K562, HCT-116, SW620, MEWO and A375 cancer cells (Homo sapiens (Human)) (Q07817 whole entry): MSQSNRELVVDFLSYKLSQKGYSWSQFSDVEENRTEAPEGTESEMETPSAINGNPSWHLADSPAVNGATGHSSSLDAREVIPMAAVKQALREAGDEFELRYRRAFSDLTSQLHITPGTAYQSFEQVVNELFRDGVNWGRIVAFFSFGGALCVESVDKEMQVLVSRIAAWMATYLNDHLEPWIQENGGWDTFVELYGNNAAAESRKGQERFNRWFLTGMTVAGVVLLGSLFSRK
T1 sequence (Q07820 other isoform, or with tags, fused parts or gaps): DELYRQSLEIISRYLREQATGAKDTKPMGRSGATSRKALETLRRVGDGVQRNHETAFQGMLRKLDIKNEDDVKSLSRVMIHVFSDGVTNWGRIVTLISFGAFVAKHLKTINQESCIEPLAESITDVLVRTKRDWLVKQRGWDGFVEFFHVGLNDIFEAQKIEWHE
T3 sequence (Q07817 other isoform, or with tags, fused parts or gaps): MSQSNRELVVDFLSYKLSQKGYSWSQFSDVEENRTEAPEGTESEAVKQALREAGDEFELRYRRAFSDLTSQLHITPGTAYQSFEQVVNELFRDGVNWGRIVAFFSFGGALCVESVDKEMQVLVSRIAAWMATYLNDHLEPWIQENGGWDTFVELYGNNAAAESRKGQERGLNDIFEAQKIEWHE
T6 sequence (Q07820 172-321): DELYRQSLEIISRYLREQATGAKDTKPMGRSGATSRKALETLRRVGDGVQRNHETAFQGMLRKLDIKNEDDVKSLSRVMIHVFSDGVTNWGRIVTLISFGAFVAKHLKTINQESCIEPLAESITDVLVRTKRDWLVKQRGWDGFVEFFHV
Sequence of BCL-2 (1-34:chimeric loop:92-203), biotinylated, with C-terminal biotinylation sequence (P10415 other isoform, or with tags, fused parts or gaps mutant): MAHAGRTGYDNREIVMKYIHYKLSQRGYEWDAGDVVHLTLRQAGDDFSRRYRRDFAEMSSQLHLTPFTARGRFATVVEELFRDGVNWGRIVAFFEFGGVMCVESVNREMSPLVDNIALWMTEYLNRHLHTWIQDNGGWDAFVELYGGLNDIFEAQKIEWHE

B1: 4H_αBM_2 (I143L/I54E/G58E) (designed binder)
chain: MDAKKVAKKAAIQAARRITELAQVLVELLKEALKLDLTQEMRKKLIERYAAAIERAIEDINNAIYQAKQEAEKLKKAGLVDSDQLDALLRALDELQKVASKAANQLGRLFEEALKRLDKDNGGEEEKDRTAKWFEFEARAIELALRLAAIGDVFDLEKEWRKLK
notes: also called 4H_αBM_3 (I54E/G58E)
B1: the Kd was determined as 2.04 nM in [1]; 16.4 nM in assay [3]; 113 nM in assay [4]; 133 nM in assay [5]; 0.82 nM in assay [6]; 146 nM in assay [7]. In assay [8], this molecule came in with a Kd of 1.59 nM. For the same molecule, the “fold reduced affinity (against 4H_αBM_2 (I54E/G58E))” value in assay [2] is ~7 fold.

B2: 4H_αBM_2 (designed binder)
chain: MDAKKVAKKAAIQAARRITELAQVLVELLKEALKLDLTQEMRKKLIERYAAAIIRAIGDINNAIYQAKQEAEKLKKAGLVDSDQLDALLRALDELQKVASKAANQLGRLFEEALKRLDKDNGGEEEKDRTAKWFEFEARAIEIALRLAAIGDVFDLEKEWRKLK
As to B2, the “fold stronger binding than 4H_αBM_1” value in assay [9] came out at 40 fold. For the same molecule, the binding result with MCL-1 (172-321) [10] is listed as “binds”. The molecule further had a Kd in assay [11] of 0.21 nM.

B3: 4H_αBM_1 (designed binder)
chain: MDAKKVAKKAADQAANRIRELAQVLVELLKEALKLDLTQEMRKKLIERYAAAIIRAIGDINNAIYQAKQEAEKLKKAGLVDSDQLDALLRALDELQKVASKAANQLGRLFEEALKRLDKDNGGEEEKDRTAKWFEFEARAIAIALTLAAIGDVFDLEKEWRKLK
notes: also called D81
Turning to B3, the binding result in the assay with MCL-1 (172-321) [12] is on record as “binds”. Moreover, binding in assay [13] was characterised by a dissociation constant (Kd) of 8.57 nM.

B4: 4H_αBM_2 (I54E/G58E) (designed binder)
chain: MDAKKVAKKAAIQAARRITELAQVLVELLKEALKLDLTQEMRKKLIERYAAAIERAIEDINNAIYQAKQEAEKLKKAGLVDSDQLDALLRALDELQKVASKAANQLGRLFEEALKRLDKDNGGEEEKDRTAKWFEFEARAIEIALRLAAIGDVFDLEKEWRKLK
notes: also called 4H_αBM_2 (154E/G58E)
Consider B4, for which the Kd in assay [5] is 19.2 nM.

B5: 4H_αBM_3 (designed binder)
chain: MDAKKVAKKAAIQAARRITELAQVLVELLKEALKLDLTQEMRKKLIERYAAAIIRAIGDINNAIYQAKQEAEKLKKAGLVDSDQLDALLRALDELQKVASKAANQLGRLFEEALKRLDKDNGGEEEKDRTAKWFEFEARAIELALRLAAIGDVFDLEKEWRKLK
notes: also called 4H_αBM_2 (I143L)
Take B5: the “fold higher binding affinity than human BIM BH3” value in [14] and in [15] was > 8 fold throughout.

B6: 4H_αBM_3_CTS, 3×FLAG-tagged, expressed in cancer cell lines by lentivirus (designed binder, not shown: small tags and cut ends)
chain: MDAKKVAKKAAIQAARRITELAQVLVELLKEALKLDLTQEMRKKLIERYAAAIIRAIGDINNAIYQAKQEAEKLKKAGLVDSDQLDALLRALDELQKVASKAANQLGRLFEEALKRLDKDNGGEEEKDRTAKWFEFEARAIELALRLAAIGDVFDLEKEWRKLKPRMVILRLLRYIVRLVWRMH
As for B6, in assay [16], the cell viability (WST-1), A375 cells came out at 11%; the cell viability (WST-1), HCT-116 cells stood at 50%; the cell viability (WST-1), K562 cells is 33%; the cell viability (WST-1), MEWO cells amounted to 33%. Besides, the cell viability (WST-1), SW620 cells in assay [16] worked out at 27%. Besides, in assay [17], the cell viability (WST-1), A375 cells was determined as 11%; the cell viability (WST-1), HCT-116 cells amounted to 50%; the cell viability (WST-1), K562 cells was found to be 33%; the cell viability (WST-1), MEWO cells was 33%. In assay [17], this molecule had a cell viability (WST-1), SW620 cells of 27%.

For orientation: Kd means the free concentration of one partner at which half of the binding sites on the other are occupied at equilibrium, for simple one-to-one binding.
